The data set in a line: soluble on expression in E. coli; label from the status in PepcDB or PDB records.
With “MNDYAAMPSEDREVGALSLPPHSMEAEQSVLGGLMLENPAWDRIADVVSGEDFYRHEHRLIFRSIAKLINESRPADVITVQEDLQRNEELEAAGGFEYLITLAQNTPSAANIRRYAEIVRERSIMRQLAEVGTEIARSAYNPQGRDAGQLLDEAENKVFQIAESTAKSKQGFLEMPDLLKEVVQRIDMLYSRDNPDEVTGVPTGFIDLDKKTSGLQPGDLIIVAGRPSMGKTAFSINIAEHVAVEGRLPVAVFSMEMGGAQLVMRMLGSVGRLDQSVLKTGRLEDEHWGRLNEAVVKLSDAPVYIDETPGLTALELRARARRLARQFNNKLGLIVIDYLQLMAGSGRSDNRASELGEISRSLKALAKELQVPIIALSQLSRTVESRTDKRPMMSDLRESGAIEQDADLIMFMYRDEYYNQDSPMKGLAECIIGKHRNGPVGKIFLTWTGQFTKFDNAAYIPEEAKIED”, the “soluble on expression in E. coli” value is given as “not soluble”.
To “MKKRLNIGLVGLGCVGSAVAKILQENQEIIKDRAGVGIGIKKAVVRDVKKHKGYPFEISNDLESLIEDEEIDIVVELMGGVEAPYLLAKKTLAKQKAFVTANKAMLAYHRYELEQTAKNTPIGFEASVCGGIPIIKALKDGLSANHILSFKGILNGTSNYILSQMFKNQASFKDALKDAQHLGYAELNPEFDIKGIDAAHKLLILASLAYGIDAKLEEILIEGIEKIEPDDMEFAKEFGYSIKLLGIAKKHPDCIELRVHPSMIKNECMLSKVDGVMNAISVIGDKVGETLYYGAGAGGEPTASAVISDIIEIARKKSSLMLGFETPQKLPLKPKEEIQCAYYARLLVSDEKGVFSQISAILAQNDISLNNVLQKEILHSNKAKILFSTHTTNEKSMLNALKELENLQSVLDTPKMIRLEN” belongs “not soluble”.
To “MGSDKIHHHHHHMRTFRLVIACPDRVGIVAKVSNFLASHNGWITEASHHSDNLSGWFFMRHEIRADTLPFDLDGFREAFTPIAEEFSMDWRITDSAQKKRVVLMASRESHCLADLLHRWHSDELDCDIACVISNHQDLRSMVEWHDIPYYHVPVDPKDKEPAFAEVSRLVGHHQADVVVLARYMQILPPQLCREYAHQVINIHHSFLPSFVGAKPYHQASLRGVKLIGATCHYVTEELDAGPIIEQDVVRVSHRDSIENMVRFGRDVEKMVLARGLRAHLEDRVLVHDNKTVVFD” belongs “not soluble”; to “MGSDKIHHHHHHMTSSLQKLFTFDEFLDFLVTQPENIRYELHDGNIIQMPPPLGQHEQIVAFLTMILGYECLRLKLNYGIPKNATVKPENRTSGYYPDVLLINFSNLINEALWEKQSILSHPDSIPLVIEVVSTNWRDDYHKKLADYEEMGIQEYWIVDYAALGSKELIGDPKQPTITIYSLSDEGEYRGKQFRGDDRIESPTFSNLNLKVEQIFHCVIE”, “not soluble”.
As to “MSLATKFPKNFKLATATAAYQIEGAKDLNGRGFSTWDAIRLEPGRILDNSDPDLSCDGLLKYKEDVALLAEIGVTNYRFSISWSRILPDGTLSTINEEGIKFYRDLCLLLKENNIEPVVTLFHFDMPLAIYDNGTAWLNRENCEHFEKFADLCFQKFGDLVKTWITYNEINCQAWGSIVKVEGEFWLCPERPEIENHKQAPYFGAANMLLTHAKIYRNYDQNYKPTQHGILGITNGGRFCFPATDSQEDIEACNRARDWLFNFTIEPILSGSGDFPVLMRERMPFIPKFSEEEKEIIKGSTDFIGINYYLSFLVRAPKDGEKASSQSQHDGGYVFVEGKWDKICGETWIRYAPDGLLKILRYVKEKYANTPVFITENGCMDIVGQDQEDAFHDQHRIDYISGHLEAVAKALDEGCNVIGYTVWTLMDNFEWDDGFELKFGLCEVDFESPDKTRTMKKSAYFYKEFIKEFKDFHGI”, the “soluble on expression in E. coli” value was “not soluble”.
Regarding “MGAIKVEIKSGALLISPSEFKERYLPTLQDMPVLAFVRNIEAPKSWYSYLISNIEDQKSSIFPTNLPRILEISRRYFSSVKNGIVVIDALEYLTIYNGFEAIAKFLATLRDFAILDNGTVIIITEKKAWKDREWALLTSLLGKLEHHHHHH”, the “soluble on expression in E. coli” value is recorded as “not soluble”.
Regarding “MRKLFIALTFLLVPACLSAQLGGKIYLQRADSLLQRVLSLYEVKKYGLLMETYPRNPKQQITYTANTGSEVTQQEVSFLWPYSAMVSGCVSLYKTSGNKKYKKLMDKQIKPGLDLYWDTTRQPECYQSYPAFAGQNDRYYDDNDWVAIDFCDYYAVTKNKEYLKKAIALHDYIYSGWSDELGGGIYWCEQKKESKNTCSNAPATVLCMKLYKLTKDKKYLDQAMATYQWTRDNLRDPSDFVYWDNKNLQGKIGYAKYTYNSGQMIQAGVLLYQATGDEQYLKDAQQTAKGSYEHFLKPQPTVKGEMKFFPSSPWFNVILFRGLKALYEVDKNDTYVKAMIDNADYAWQYTRDENGLLNNDWSGNRKDKFKSLLENSCMIELYSEISELLEHHHHHH”, the “soluble on expression in E. coli” value is on record as “not soluble”.
To “MGSDKIHHHHHHAQDNPFKPEWFVSGGINGVTALNGSANNILGGKVSGGVWLNKIIGLRVDAEAGNVWLKGGYNAVTVGAGADILVNLMKNYTDEDRKFRLNAIFGLGYNYYSFGDDYPRLSKTNTMSGNFSLQAAFRLNSHLSIFAEPGIKISTKFYDIENKDDVFAGGMMTVGVIYKF” belongs “not soluble”.
For “MPITWMRMRPWLEMQINSNQIPGLIWINKEEMIFQIPWKHAAKHGWDINKDACLFRSWAIHTGRYKAGEKEPDPKTWKANFRCAMNSLPDIEEVKDQSRNKGSSAVRVYRMLP”, the “soluble on expression in E. coli” value is given as “soluble”.
Consider “SLSPRRLRLLLVDENPTARAVIGRRLSHRHYDVTVVEDGFAAQKTLIIQPSDIILIDMDLQLLPAIGTMEKIRAAHPAGHACIVMIGGASDTPKMIAALDAGADDHIVKPFDFDMLDARLRRVHARAERVNLLSRQYAELDARIARRAMELGETRETLRQVELDRARLMASVDHLQAEVARLSAREG”, for which the “soluble on expression in E. coli” value is recorded as “soluble”.
For “MNYLLIDTSNQPLSVAIMKDNEVIAEKTTDIKKNHSVQLMPEIAEILTESKINKTEITDIVVAEGPGSYTGLRIGVTVAKTLAYALNTNLYGVSSLKALASTVKDSTKLLVPIFDARREAVYAGVYQYQDNELITIIDDTYIPIFELIEKLHQLNQPYVFVGFHIEKIKHLLDSDIVEQLPQASSMKQLIQKPENIHSFTPKYHKLSEAERNWLNQQENNLEHHHHHH” the value was “not soluble”.
In the case of “GSYTLSEKDLKELDSIRDSFQCMNEPLDNDQQASTLAKKEHNPTDILNVMDITMRRLVKMAKRLGAFNEISEAGKFSLLKGGMIEMLTIRGVTVFNADKGVWQTPVDGHSQISFNMFDKLRPDIKDTQKKGFLHFFNLLHSDVRKNDLAIDIIVLMVLFDSKREGLVSQQDKETVEKLHRNYESLLHRYLYSIHKEEAEQRFASIPKALVALRKVAENAVTLFLGAGNTTEAASLPKEFFATNY”, the “soluble on expression in E. coli” value is “soluble”.
To “MSLIQIENQTVSGIPFLHIVKEENRHRAVPLVIFIHGFTSAKEHNLHIAYLLAEKGFRAVLPEALHHGERGEEMAVEELAGHFWDIVLNEIEEIGVLKNHFEKEGLIDGGRIGLAGTSMGGITTLGALTAYDWIKAGVSLMGSPNYVELFQQQIDHIQSQGIEIDVPEEKVQQLMKRLELRDLSLQPEKLQQRPLLFWHGAKDKVVPYAPTRKFYDTIKSHYSEQPERLQFIGDENADHKVPRAAVLKTIEWFETYLEGGSHHHHHH” belongs “soluble”.
For “MSTDVAAAQAQSKIDLTKKKNEEINKKSLEEDDEFEDFPIDTWANGETIKSNAVTQTNIWEENWDDVEVDDDFTNELKAELDRYKRENQ” the value was “soluble”; for “MSLENRFDLRCYVVTGAGSVDEVVHTASAAARGGAGVVQVRSKPISPEAMRELASKVALEVARCSPTTRVLIDDHLHVASSLMREGLPIHGVHLGQDDMSVLEARELLGPEAIIGLTTGTLELVAAANELSDVLDYIGAGPFRKTPTKDSGRPPIGLAGYPPLVELSKVPIVAIGDVTPADVRALSATGVAGVAMVRAFSESDDPQQVAENVVANFELGRLSEGHHHHHH”, “soluble”; for “MNNMTDLKAIQARSLEMAEYFVAFCKEHDLLCYLCGGGAIGALRNKGFIPWDDDLDFFMPRKDYEKLAELWPRYADERYFLSKSHKDFVDRNLFITIRDKKTTCIKPYQQDLDLPHGLALDVLPLDYYPKNPAERKKQVRWALIYSLFCAQTIPEKHGDLMKWGSRILLGLTPKSLRYRIWKKAEKEMTKYDLADCDGITELCSGPGYMRNKYPITSFEDNLFLPFEGTEMPIPIGYDVYLRTAFGDYMTPPPADKQVPHHDAVIADMDKSYTEYKGEYGGLEHHHHHH”, “soluble”.
For “MTENFAQLFEESLKEIETRPGSIIRGTIVAVNKDNVIVDAGLKSESVISIDQFKNAAGEVEVVVGDEIDVALDATDDGFGETILSREKAKRHEAWQVLEKAYEEKETVIGVINGKVKGGFTVEVSDIRAFLPGSLVDVRPVRDTAHLEGKPLEFKVIKLDQKRNNVVVSRRAVIEAEGSAERDELLESLAEGQEVKGIVKNLTDYGAFVDLGGIDGLLHITDMAWKRVKHPSEIVNVGDEIQVKVLKFDRERTRVSLGMKQLGEDPWVAIANRYPEGSKLSGRVTNLTDYGCFVEIQEGVEGLVHVSEMDWTNKNIHPSKVVNLGDTVEVLVLEIDEERRRISLGLKQCIANPWEEFAKNFNKGDKVSGKIKSITDFGIFIGLDGGIDGLVHLSDISWAGGEEAVRDYKKGDEIDAIVLQVDPERERISLGVKQAEDDPFNMYLADKKKGAIVTGKVTEVDAKGATILLAESVEGYLRVSDISVERIEDASTVLKVGDDVEARFMGVDRKNRTISLSIKAKDQADEREAMDNLNQVEETGLSAMAAAFKNAKNLEHHHHHH” the value was “soluble”.
On to “MSEKLQKVLARAGHGSRREIESIIEAGRVSVDGKIAKLGDRVEVTPGLKIRIDGHLISVRESAEQICRVLAYYKPEGELCTRNDPEGRPTVFDRLPKLRGARWIAVGRLDVNTCGLLLFTTDGELANRLMHPSREVEREYAVRVFGQVDDAKLRDLSRGVQLEDGPAAFKTIKFSGGEGINQWYNVTLTEGRNREVRRLWEAVGVQVSRLIRVRYGDIPLPKGLPRGGWTELDLAQTNYLRELVELPPETSSKVAVEKDRRRMKANQIRRAVKRHSQVSGGRRSGGRNNNG”, for which the “soluble on expression in E. coli” value is “soluble”.
For “MGSDKIHHHHHHMKIGFLGFGKSNRSLLKYLLNHQEAKFFVSEAKTLDGETKKFLEEHSVEYEEGGHTEKLLDCDVVYVSPGIKPDTSMIELLSSRGVKLSTELQFFLDNVDPKKVVGITGTDGKSTATALMYHVLSGRGFKTFLGGNFGTPAVEALEGEYDYYVLEMSSFQLFWSERPYLSNFLVLNISEDHLDWHSSFKEYVDSKLKPAFLQTEGDLFVYNKHIERLRNLEGVRSRKIPFWTDENFATEKELIVRGKKYTLPGNYPYQMRENILAVSVLYMEMFNELESFLELLRDFKPLPHRMEYLGQIDGRHFYNDSKATSTHAVLGALSNFDKVVLIMCGIGKKENYSLFVEKASPKLKHLIMFGEISKELAPFVGKIPHSIVENMEEAFEKAMEVSEKGDVILLSPGGASFDMYENYAKRGEHFREIFKRHGGDEV” the value was “not soluble”.
“MKRASVWMLLCLFFMLSGCANPSFPPVVDSLSVVISLDVKAETVTFLNAKNGSKIARWNINEPFQGGALSPDGRTLLLYGRDLDRVYRYDLAGGKPLSEWKTGNGIVSAAPSPDGRTWFFGDSTHHAVRVVSRGGKEIARLSVGRSPMTLLVNRQGTELYAIDFQDGRAFVIDASRLRVIRSFSVPKFALGGLMRERRGELWVGGHGSGNKVEKNIHVYSLRDGRLLRTIAAPVMPVDFVETGRGVFVLSHGSNTVYQFLPSGKRLNSVLVGANPFAMEAAGSRLYIASYDSDEIIVVDEATLRPLARWKTGDGPLQLFIREGRT”: the “soluble on expression in E. coli” value is given as “not soluble”.

The record behind these values is the DeepSol protein solubility set.
